According to article PMC7803729:

These substances were tested against CT-P59 monoclonal antibody (fully human IgG) (human) (assay: BLI).
CT-P59 monoclonal antibody (fully human IgG) (human), sequence (heavy, as listed by the source, chain 1 of 2): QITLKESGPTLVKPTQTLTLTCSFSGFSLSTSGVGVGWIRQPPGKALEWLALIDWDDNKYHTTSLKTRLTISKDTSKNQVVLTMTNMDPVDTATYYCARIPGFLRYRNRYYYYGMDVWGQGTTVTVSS
CT-P59 monoclonal antibody (fully human IgG) (human), sequence (light, as listed by the source, chain 2 of 2): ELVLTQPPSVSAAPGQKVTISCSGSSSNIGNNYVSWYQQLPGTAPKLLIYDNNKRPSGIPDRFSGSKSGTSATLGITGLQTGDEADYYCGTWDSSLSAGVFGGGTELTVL
For “SARS-CoV-2 RBD N354D (commercial, Sino Biological) (from UniProt P0DTC2) (domain or fragment)”, the Kd was 0.294 nM, the koff was 0.000253 s⁻¹ and the kon was 861000 M⁻¹ s⁻¹. Substance “SARS-CoV-2 RBD V367F (commercial, Sino Biological) (from UniProt P0DTC2) (domain or fragment)” has a Kd of 0.292 nM, a koff of 0.000265 s⁻¹ and a kon of 907000 M⁻¹ s⁻¹. Work on “SARS-CoV-2 RBD W436R (commercial, Sino Biological) (from UniProt P0DTC2) (domain or fragment)” yielded a Kd of 0.221 nM, a koff of 0.00018 s⁻¹ and a kon of 816000 M⁻¹ s⁻¹. With “SARS-CoV-2 RBD K458R (commercial, Sino Biological) (from UniProt P0DTC2) (domain or fragment)” the Kd was 0.236 nM, the koff was 0.000246 s⁻¹ and the kon was 1.04e+06 M⁻¹ s⁻¹.
